# Assay results taken from patent CN111647564A (LI XIN; CHONG TUOTUO; LONG YUFEI, dated 2020).
# B1: 抗LMP1单克隆抗体 7B63B10 (secreted by hybridoma cell line 7B63B10, CCTCC NO: C2019160) (antibody, IgG2b, V domains shown)
# VH: EVKLVESGGGFVQPGGSRKLSCAASGFTFSSFGMHWVRQAPEKGLEWVAYISSGSSTIYYADTVKGRFTISRDNPKNTLFLQMTSLRSEDTAMYYCARDWVLDYWGQGTTLTVSS
# VL: DIVITQTPLSLPVSLGDQASVSCRSSQSLVHSNGNTYLHWYLQKPGQSPKLLIYKVSNRFSGVPDRFSGSGSGTDFTLNISRVEAEDLGVYFCSQSTHVPFTFGGGTKLEIKR
# notes: Mouse (Balb/c) hybridoma antibody, Ig type IgG2b; also called LMP1 7B63B10; 本发明单克隆抗体
# Molecular target: T1, LMP1重组蛋白抗原 (SEQ ID NO.2, 213-408aa of LMP1, expressed in E. coli) (Epstein-Barr virus, UniProt P29362 187-404)
# T1 construct: Recombinant fragment purified with NTA buffers (a tag from the expression vector is likely but is not described); also called LMP1蛋白
# T1 chain: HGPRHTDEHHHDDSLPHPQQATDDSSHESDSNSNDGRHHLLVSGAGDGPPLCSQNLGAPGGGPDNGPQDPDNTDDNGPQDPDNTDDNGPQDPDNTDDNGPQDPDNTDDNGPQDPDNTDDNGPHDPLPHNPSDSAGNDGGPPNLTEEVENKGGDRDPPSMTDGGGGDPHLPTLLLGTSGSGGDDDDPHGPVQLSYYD
# Assay: non-competitive ELISA by Beatty's method, power curve model
binder,measurement,value
B1,Ka,9e+09 M⁻¹
